First the molecules themselves.
B1: hzsp34.24 (antibody, human IgG1, lambda, L234A L235A, V domains shown)
VH: EVQLVESGGGLVQPGGSLKLSCAASGFTFNTYAMNWVRQASGKGLEWVGRIRSKYNNYATYYADSVKDRFTISRDDSKSTLYLQMNSLKTEDTAVYYCARHGNFGQSYVSWFAYWGQGTTVTVSS
VL: QAVVTQEPSLTVSPGGTVTLTCRSSTGAVTTSNYANWVQQKPGQAPRGLIGGTNKRAPGVPARFSGSLLGDKAALTLLGAQPEDEAEYYCALWYSNLWVFGQGTKLTVLG
notes: IgG1 L234A L235A, lambda; parent of the CDR mutants
B2: hzsp34.38 (antibody, human IgG1, kappa, L234A L235A, V domains shown)
VH: B1 VH with Q106N
VL: EIVMTQSPATLSVSPGERATLSCRSSTGAVTTSNYANWVQQKPGQAPRGLIGGTNKRAPGVPARFSGSGSGTEFTLTISSLQSEDFAVYYCALWYSNLWVFGQGTKLTVLR
notes: IgG1 L234A L235A, kappa
B3: hzsp34.45 (antibody, human IgG1, kappa, L234A L235A, V domains shown)
VH: B1 VH with G49A
VL: B2 VL with T72D
notes: IgG1 L234A L235A, kappa
B4: hzsp34.40 (antibody, human IgG1, kappa, L234A L235A, V domains shown)
VH: B1 VH with G49A
VL: B2 VL
notes: IgG1 L234A L235A, kappa
B5: hzsp34.42 (antibody, human IgG1, kappa, L234A L235A, V domains shown)
VH: B1 VH with S79N, Q106N
VL: B2 VL with T72D
notes: IgG1 L234A L235A, kappa
B6: hzsp34.33 (antibody, human IgG1, kappa, L234A L235A, V domains shown)
VH: B1 VH with Q106N
VL: B2 VL with G49L
notes: IgG1 L234A L235A, kappa
B7: hzsp34.12 (antibody, human IgG1, lambda, L234A L235A, V domains shown)
VH: B1 VH with S79N, Q106N
VL: B1 VL with G48T, D71G
notes: IgG1 L234A L235A, lambda
B8: hzsp34.28 (antibody, human IgG1, kappa, L234A L235A, V domains shown)
VH: B1 VH with Q106N
VL: B2 VL with V39Y, G49L, G52Y, V61I
notes: IgG1 L234A L235A, kappa
B9: Her2-hzsp34.24 (bispecific antibody, IgG1, V domains shown)
VH 1: not shown
VL 1: not shown
VH 2: B1 VH
VL 2: QAVVTQEPSLTVSPGGTVTLTCRSSTGAVTTSNYANWVQQKPGQAPRGLIGGTNKRAPGVPARFSGSLLGDKAALTLLGAQPEDEAEYYCALWYSNLWVFGQGTKLTVL
notes: 1+1 trastuzumab x hzsp34.24, IgG1 LALA knob-into-hole; also called Her2-sp34.24; copies: 1 + 1 + 1 + 1
B10: Her2-hzsp34.80 (bispecific antibody, IgG1, V domains shown)
VH 1: not shown
VL 1: not shown
VH 2: B1 VH with Y32A
VL 2: B9 VL 2
notes: 1+1 trastuzumab x hzsp34.80, IgG1 LALA knob-into-hole; also called Her2-sp34.80; copies: 1 + 1 + 1 + 1
B11: Her2-hzsp34.101 (bispecific antibody, IgG1, V domains shown)
VH 1: not shown
VL 1: not shown
VH 2: B1 VH with Y108A, V109A
VL 2: B9 VL 2
notes: 1+1 trastuzumab x hzsp34.101, IgG1 LALA knob-into-hole; also called Her2-sp34.101; copies: 1 + 1 + 1 + 1
B12: Her2-hzsp34.87 (bispecific antibody, IgG1, V domains shown)
VH 1: not shown
VL 1: not shown
VH 2: B1 VH with G102Y
VL 2: B9 VL 2
notes: 1+1 trastuzumab x hzsp34.87, IgG1 LALA knob-into-hole; also called Her2-sp34.87; copies: 1 + 1 + 1 + 1
B13: Her2-hzsp34.97 (bispecific antibody, IgG1, V domains shown)
VH 1: not shown
VL 1: not shown
VH 2: B1 VH with Y55A, N56G, N57G
VL 2: B9 VL 2
notes: 1+1 trastuzumab x hzsp34.97, IgG1 LALA knob-into-hole; also called Her2-sp34.97; copies: 1 + 1 + 1 + 1
B14: Her2-hzsp34.99 (bispecific antibody, IgG1, V domains shown)
VH 1: not shown
VL 1: not shown
VH 2: B1 VH with F104A, G105Y
VL 2: B9 VL 2
notes: 1+1 trastuzumab x hzsp34.99, IgG1 LALA knob-into-hole; also called Her2-sp34.99; copies: 1 + 1 + 1 + 1

Changes are numbered by the printed parent chain. Numbers in names are those of the source.

T3 sequence (P07766 23-126, chain 1 of 2): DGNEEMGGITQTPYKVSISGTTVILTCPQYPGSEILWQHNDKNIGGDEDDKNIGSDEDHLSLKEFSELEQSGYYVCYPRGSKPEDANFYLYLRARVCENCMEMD
T3 sequence (P04234 22-105, chain 2 of 2): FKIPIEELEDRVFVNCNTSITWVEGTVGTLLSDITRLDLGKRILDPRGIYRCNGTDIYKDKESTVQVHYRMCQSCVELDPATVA
T1 sequence (P07766 23-207, chain 1 of 3): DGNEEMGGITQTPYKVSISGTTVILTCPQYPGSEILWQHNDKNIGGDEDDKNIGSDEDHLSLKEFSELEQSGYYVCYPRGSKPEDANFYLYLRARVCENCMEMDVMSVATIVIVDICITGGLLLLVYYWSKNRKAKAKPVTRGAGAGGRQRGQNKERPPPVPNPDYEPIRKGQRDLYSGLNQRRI
T1 sequence (P04234 22-171, chain 2 of 3): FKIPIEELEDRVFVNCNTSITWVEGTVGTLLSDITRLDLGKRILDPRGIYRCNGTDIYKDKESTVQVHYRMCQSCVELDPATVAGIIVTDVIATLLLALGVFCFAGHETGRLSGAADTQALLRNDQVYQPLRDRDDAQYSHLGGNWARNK
T1 sequence (P09693 23-182, chain 3 of 3): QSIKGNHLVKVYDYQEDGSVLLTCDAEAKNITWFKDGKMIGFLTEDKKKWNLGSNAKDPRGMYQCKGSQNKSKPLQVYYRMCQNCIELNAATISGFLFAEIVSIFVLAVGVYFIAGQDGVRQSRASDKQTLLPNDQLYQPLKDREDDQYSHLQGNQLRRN

The first assay concerns the target T1, human CD3 complex on Jurkat cells (human, UniProt P07766 23-207; P04234 22-171; P09693 23-182).
T1 construct: whole, on cells; natural CD3 complex of Jurkat T cells (also used here for CD3 on T cells of human PBMC); also called human CD3 at the cell level; CD3 on T cells
In words: flow cytometry on Jurkat cells (human CD3 complex), 'Jurkat cell line binding', Example 3.2 [cont) D]. The method, then: Jurkat cells are immortalized human T lymphocytes, which express human CD3 complex. The cell line is used to detect the binding of the antibody to the cell. The detailed operation was as follows: Jurkat cells (Promega, J1621) was inoculated into U-shaped 96-well plate, 2×10⁵ for each well. The antibodies to be detected at a series of concentration gradients (the initial concentration of antibody molecule is 500 nM, 3 folds serial dilution) was added into the corresponding cell well, incubated at 4° C. for 30 minutes, and then PBS was used to wash out the unbound part. The sheep anti-human Fc PE fluorescent second antibody (Southern Biotech, J2815-5H87B) was added, then incubated at 4° C. for 15 minutes. and detected by flow cytometry ([…] BD). […] Some of these antibodies were selected to make a further binding curve at cell level.
For orientation: Flow cytometry measures light scatter and fluorescence of single cells or particles in a stream.
B1 yielded an EC50 of 1.25 nM.

B2 displayed an EC50 of 7.85 nM.

In turn, B3 gave an EC50 of 122 nM.

As for B4, a half-maximal effect (EC50) was put at 91.9 nM.

In the case of B5, the EC50 was 39.2 nM.

The target of a further assay is T2, human CD3E&G complex (Sino Biological Inc., CT041-H0305H) (human, UniProt P07766 23-126; P09693 23-116).
T2 construct: bought heterodimer; also called human CD3E&G antigen
T2 sequence (P07766 23-126, chain 1 of 2): as the sequence (P07766 23-126, chain 1 of 2) above
T2 sequence (P09693 23-116, chain 2 of 2): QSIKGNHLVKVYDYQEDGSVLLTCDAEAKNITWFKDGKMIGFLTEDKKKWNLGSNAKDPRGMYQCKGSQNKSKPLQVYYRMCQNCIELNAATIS
In words: BLI, antibody on sensor. On the technique in general: In BLI a coated tip is dipped into the sample, and binding shifts an interference pattern.
B1 returned a Kd of 8 nM, an off-rate constant (koff) of 0.00179 s⁻¹ and a kon of 224000 M⁻¹ s⁻¹.

A further assay addresses T3, human CD3 E&D complex protein (Sino Biological Inc., CT026H0323H) (human, UniProt P07766 23-126; P04234 22-105).
T3 construct: bought heterodimer; also called human CD3 protein (CT026H0323H)
In words: BLI, antibody on sensor.
As to B1, the affinity, expressed as Kd, was 0.975 nM; the koff stood at 0.000234 s⁻¹; the on-rate (kon) stood at 240000 M⁻¹ s⁻¹.

The next assay addresses T3, human CD3 E&D complex protein (Sino …). In words: BLI, antibody on sensor. This is another data set of the same source. The method, then:
(§1) 100 μl SD buffer, various antibodies, human CD3 E&D complex protein (Sino Biological Inc., CT026H0323H), and cynomolgus monkey CD3 E&D complex protein (Sino Biological Inc., CT032-00323H) were added into 96-well black polystyrene semi-quantitative micro-well plate (Greiner, 675076) respectively. Fortebio Octet Red 96 was used for detection, and the sensor position was selected according to the sample position. The setting parameters of the instrument are as follows: operation steps: Baseline, Loading-1 nm, Baseline, Association and Dissociation; the operation time of each step depends on the speed of sample association and dissociation. The rotational speed is 1000 rpm and the temperature is 30° C. ForteBio Octet analysis software was used to analyze KD value.
On to B1, for which the equilibrium dissociation constant (Kd) was 0.718 nM, the off-rate (koff) is 0.00247 s⁻¹ and the on-rate (kon) amounted to 3.44e+06 M⁻¹ s⁻¹.

In turn, B2 came in with a Kd of 12.7 nM, a koff of 0.00505 s⁻¹ and an association rate constant (kon) of 397000 M⁻¹ s⁻¹.

As for B6, the binding result was “no binding”.

B3 came in with a Kd of 18.4 nM, a koff of 0.0065 s⁻¹ and an on-rate constant (kon) of 353000 M⁻¹ s⁻¹.

For the molecule B4, the dissociation constant Kd turned out to be 16.8 nM, the off-rate constant (koff) came out at 0.00515 s⁻¹ and the kon came out at 307000 M⁻¹ s⁻¹.

The molecule B5 came in with a Kd of 14.7 nM, an off-rate (koff) of 0.00526 s⁻¹ and a kon of 357000 M⁻¹ s⁻¹.

Molecule B7 yielded a dissociation constant (Kd) of 6.19 nM, an off-rate constant (koff) of 0.00396 s⁻¹ and an on-rate constant (kon) of 640000 M⁻¹ s⁻¹.

As for B8, the binding result was “no binding”.

The next assay deals with T4, cynomolgus monkey CD3 E&D complex protein (Sino Biological Inc., CT032-00323H) (cynomolgus monkey, UniProt Q95LI5 22-117; Q95LI8 22-105).
T4 construct: bought heterodimer
T4 sequence (Q95LI5 22-117, chain 1 of 2): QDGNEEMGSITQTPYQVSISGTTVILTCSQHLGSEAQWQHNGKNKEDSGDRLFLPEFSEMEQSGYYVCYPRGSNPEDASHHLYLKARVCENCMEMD
T4 sequence (Q95LI8 22-105, chain 2 of 2): as the sequence (P04234 22-105, chain 2 of 2) above, with I5V, N15K, I20V, S32T, D33N, I34N, T64A, S74N, V83L counted along it
In words: BLI, antibody on sensor. The protocol: as §1
Regarding B1, the affinity, expressed as Kd, was 0.738 nM; the koff is 0.000941 s⁻¹; the on-rate (kon) amounted to 1.28e+06 M⁻¹ s⁻¹.

The molecule B2 gave a Kd of 6.36 nM, a koff of 0.00183 s⁻¹ and a kon of 288000 M⁻¹ s⁻¹.

As for B6, the binding result is recorded as “no binding”.

As for B3, the affinity, expressed as Kd, was 26.9 nM; the koff is 0.00521 s⁻¹; the on-rate (kon) stood at 194000 M⁻¹ s⁻¹.

B4: the affinity, expressed as Kd, was 15.3 nM; the koff was 0.003 s⁻¹; the kon was found to be 196000 M⁻¹ s⁻¹.

With B5, binding was characterised by a dissociation constant (Kd) of 10.2 nM, the off-rate (koff) is 0.00248 s⁻¹ and the kon was determined as 243000 M⁻¹ s⁻¹.

Turning to B7, the dissociation constant Kd worked out at 4.73 nM, the koff is 0.00226 s⁻¹ and the association rate constant (kon) is 479000 M⁻¹ s⁻¹.

Molecule B8 showed an equilibrium dissociation constant (Kd) of 2.82 nM, a koff of 0.00117 s⁻¹ and an on-rate constant (kon) of 415000 M⁻¹ s⁻¹.

Another assay deals with T2, human CD3E&G complex (Sino Biological …). As to the kind of experiment: SPR, antigen on chip. The protocol: (§2) The CD3 equilibrium dissociation constant (KD) of Her2×CD3 bispecific antibody was determined using Biacore (GE Healthcare, T200), and the specific method is as follows:
(§3) The human CD3E&G antigen (Sino Biological Inc., CT041-H0305H) and Cynomolgus monkey CD3E&D antigen protein (Sino Biological Inc., CT032-00323H) were coupled to the chip surface. Afterwards, the affinity and kinetic constants were obtained by detecting the binding and dissociation between the chip surface antigen and the antibody in the mobile phase. The method includes chip preparation and affinity detection. 10-fold diluted 10×HBS-EP+(BR-1006-69, GE Healthcare) was used as the experimental buffer during measurement. […] After coupling, 1 M ethanolamine was injected to block the remaining activation sites. Affinity detection cycle is carried out for each concentration of antibody, and each cycle includes binding to antibody with this concentration and chip regeneration. The antibody after serial dilution (Her2-sp34.24: initial concentration 32 nM, 2 folds serial dilution; Her2-sp34.87: initial concentration 200 nM, 2 folds serial dilution; Her2-sp34.80, Her2-sp34.97, Her2-sp34.99, Her2-sp34.101: initial concentration 800 nM, 2 folds serial dilution; all dilute 5 concentration points), flows through the chip surface from low concentration to high concentration at 30 μl/min of the flow rate, with a binding time of 180 s and a dissociation time of 600 s. Finally, 10 mM Glycine pH 1.5 (BR-1003-54, GE Healthcare) was used to regenerate the chip. The data results were analyzed using the Biacore T200 analysis software (version 3.1), and the analysis model used was 1:1 combined model for dynamic analysis.
(SPR reads the build-up and loss of mass on a sensor chip optically.)
In turn, B9 displayed a Kd of 4.88 nM, a koff of 0.00779 s⁻¹ and an association rate constant (kon) of 1.6e+06 M⁻¹ s⁻¹.

The molecule B10 came in with a Kd of 987 nM, an off-rate constant (koff) of 0.491 s⁻¹ and a kon of 497000 M⁻¹ s⁻¹.

On to B11, for which binding was put at a Kd of 159 nM, the koff worked out at 0.101 s⁻¹ and the kon worked out at 637000 M⁻¹ s⁻¹.

The molecule B12 registered a Kd of 141 nM, a koff of 0.0462 s⁻¹ and a kon of 327000 M⁻¹ s⁻¹.

B13 showed a Kd of 361 nM, a koff of 0.191 s⁻¹ and a kon of 528000 M⁻¹ s⁻¹.

Turning to B14, the Kd came out at 627 nM, the off-rate constant (koff) was determined as 0.0817 s⁻¹ and the kon was 130000 M⁻¹ s⁻¹.

The target in another assay is T4, cynomolgus monkey CD3 E&D complex …. As to the kind of experiment: SPR, antigen on chip. The method, then: as §2, §3
On to B9, for which the dissociation constant Kd is 7.2 nM, the off-rate (koff) stood at 0.008 s⁻¹ and the on-rate (kon) was 1.11e+06 M⁻¹ s⁻¹.

Take B10: the Kd is 1310 nM, the koff came out at 0.78 s⁻¹ and the kon is 596000 M⁻¹ s⁻¹.

B11 registered an equilibrium dissociation constant (Kd) of 179 nM, a koff of 0.0987 s⁻¹ and an association rate constant (kon) of 551000 M⁻¹ s⁻¹.

B12: the affinity, expressed as Kd, was 242 nM; the koff turned out to be 0.035 s⁻¹; the kon came out at 145000 M⁻¹ s⁻¹.

For the molecule B13, the dissociation constant Kd worked out at 327 nM, the off-rate (koff) was 0.177 s⁻¹ and the association rate constant (kon) is 543000 M⁻¹ s⁻¹.

Turning to B14, binding was put at a Kd of 1200 nM, the dissociation rate constant (koff) came out at 0.1 s⁻¹ and the on-rate constant (kon) worked out at 83400 M⁻¹ s⁻¹.

By EC50 is commonly meant the concentration that produces a half-maximal response. Usually Kd stands for the concentration at which binding is half-saturated. For orientation: koff means the first-order rate constant of dissociation. What is called kon is the second-order rate constant of association.

The values above are taken from patent publication US20230374132A1 (Innovent, published 2023).
